Results on 131 substances are retold here after the supplement of paper PMC12042874.

± gives the uncertainty stated by the source.

The nature of the data set: amyloid nucleation score (Sup35N fusion, yeast selection) (log enrichment); library NNK3; higher = more nucleation; inactive = no reads after selection. Summed up: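 Nucleation score is defined as the DiMSum log enrichment of output over input reads, with centring on the mode score of non-aggregating sequences. A minimum of 100 input reads was required for each sequence. Reads came from Illumina sequencing of plasmid inserts from psi-negative yeast expressing Sup35N fused to peptides of 20 random codons, induced with 100 μM copper sulfate for 24 hours and grown 7 days at 30°C on medium lacking adenine and uracil.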

Turning to SADQSCYSPHFGGQRDRRWL, the amyloid nucleation score result is “inactive”.

LWIVLQVHSFDVRFAQGFHI returned an amyloid nucleation score of 0.613 ± 0.17.

Turning to FYRSFSPSYNLYMYGIYDR, the amyloid nucleation score was 2.77 ± 0.067.

In the case of GYNIMLYMLKYS, the amyloid nucleation score entry was “inactive”.

In the case of MCILQGLFDVNSLTGLWVAS, the amyloid nucleation score result was “inactive”.

Turning to YSANDLPVNAHGEILKVGLL, the amyloid nucleation score entry was “inactive”.

Take ARHSCA: the amyloid nucleation score result was “inactive”.

Regarding SLMDNVLSFHFVVANWNTLD, the amyloid nucleation score entry is “inactive”.

In the case of SIFLGLRSRQLSFISLLEDG, the amyloid nucleation score entry is “inactive”.

Regarding FFNIDVHARVSI, the amyloid nucleation score result is “inactive”.

On to CIEWHAQGDFFLMICLYCPD, for which the amyloid nucleation score result was “inactive”.

With WFYGRLLPVPVLWIIRLKKG, the amyloid nucleation score is 0.01 ± 0.59.

As for SNSHWIYWYTNPGQHRPSHR, the amyloid nucleation score result is “inactive”.

TPCNRREISWFVFSLPA: the amyloid nucleation score result is “inactive”.

The substance VVRCLLFVQLGCSKNLVAFQ registered an amyloid nucleation score of 1.12 ± 0.12.

On to GKTNNLLSFFSKTPLTFSCL, for which the amyloid nucleation score result is “inactive”.

For the substance INVSLGHAGEGWVWLALHLR, the amyloid nucleation score result is “inactive”.

In the case of KRGMSHVSVCFIMRCFLYID, the amyloid nucleation score entry was “inactive”.

IVDHNIMI registered an amyloid nucleation score of 0.718 ± 0.3.

Take RLGSSNV: the amyloid nucleation score result was “inactive”.

Take LWASTVGVFVGRRSPYLMCW: the amyloid nucleation score result is “inactive”.

Take RCNISTRFLLLWTFSFLLVY: the amyloid nucleation score entry was “inactive”.

NFLFMCSPYYLWIFDPGCYL yielded an amyloid nucleation score of 2.8 ± 0.074.

Substance RVQIKVDGVSVHTDFSDWRS showed an amyloid nucleation score of 1.8 ± 0.086.

As for MNWLSTTGECSILDISQ, the amyloid nucleation score entry is “inactive”.

On to LFSMEKGEYGNRRGYAVYFL, for which the amyloid nucleation score was 1.74 ± 0.084.

For QICRGCRYVNVYYVPLSLDL, the amyloid nucleation score came to 1.32 ± 0.095.

In the case of RGRGAPCARFRNVYGMPFFY, the amyloid nucleation score result is “inactive”.

Turning to GYNVVKLCFIIILFVVEESS, the amyloid nucleation score result was “inactive”.

Take PDRMIGGLSFRKFDISCPYA: the amyloid nucleation score result is “inactive”.

ASMLALCVLMHRLEPIRSFN: the amyloid nucleation score amounted to 0.64 ± 0.2.

As to HMLLVD, the amyloid nucleation score result is “inactive”.

Consider NMRYKHAWNLEVVVLKVHVY, for which the amyloid nucleation score entry was “inactive”.

Consider TLRGMGQHRQR, for which the amyloid nucleation score result was “inactive”.

The substance WIVFMGDASCLSLLTWELFC displayed an amyloid nucleation score of 1.25 ± 0.095.

As for MWVGKHDVYTRDFM, the amyloid nucleation score entry was “inactive”.

As for HLWCKPRLWKSLFVPYD, the amyloid nucleation score result is “inactive”.

Regarding IILRTWVSTLQSNSAIEVTL, the amyloid nucleation score entry was “inactive”.

On to LRGYLHWLCSECSVLVSAVA, for which the amyloid nucleation score result was “inactive”.

As for FLRCTRPPTASENIFRDINY, the amyloid nucleation score result is “inactive”.

For the substance NNFKGFFRRFTVGCSRTPPT, the amyloid nucleation score result was “inactive”.

In the case of WHDYTQRGVWAHGTALVWG, the amyloid nucleation score entry is “inactive”.

On to CDVCNM, for which the amyloid nucleation score entry was “inactive”.

On to HLVRIASIRLNCDPLYRSVV, for which the amyloid nucleation score result was “inactive”.

With LIKVTS, the amyloid nucleation score entry was “inactive”.

EGWIRVFTEFNFSS gave an amyloid nucleation score of 0.263 ± 0.46.

For CYAGRLSETSNWLLLCVELE, the amyloid nucleation score result was “inactive”.

As for CRKNRSFGDGDLKFCANLNC, the amyloid nucleation score result was “inactive”.

As for VRRVQSLRPPAHVSLAPYRA, the amyloid nucleation score result was “inactive”.

For the substance LTRFRDIRFLINKNGACKEW, the amyloid nucleation score is -0.213 ± 0.71.

Take CYVIILVRL: the amyloid nucleation score result was “inactive”.

Regarding MYFEECGRCFNRSFNYGVNQ, the amyloid nucleation score result is “inactive”.

As for SGTFYANVWFRFISFGWYLR, the amyloid nucleation score result is “inactive”.

Turning to LIYANEYA, the amyloid nucleation score result was “inactive”.

For the substance ILLSVSWGAR, the amyloid nucleation score worked out at 1.49 ± 0.13.

With TCTCGVFSD, the amyloid nucleation score entry was “inactive”.

For the substance LRPRYSAYILQSRR, the amyloid nucleation score result is “inactive”.

As to ERFIKN, the amyloid nucleation score entry is “inactive”.

As to IWSIQLSFKIASSCNFATG, the amyloid nucleation score result is “inactive”.

Turning to FRITNWLSLYDKTEISHASI, the amyloid nucleation score entry was “inactive”.

On to YMVHDHFKSNFRMCGCGYFN, for which the amyloid nucleation score entry is “inactive”.

Take WVDYLYNSLESIRMCWANVY: the amyloid nucleation score result was “inactive”.

Take LHFVVFAYYKRLMDSQIC: the amyloid nucleation score result is “inactive”.

With GVTCKHRPAKYVQDRMNF, the amyloid nucleation score result was “inactive”.

Regarding TCTGCTSVTL, the amyloid nucleation score entry is “inactive”.

On to NYSAFRGSMIV, for which the amyloid nucleation score entry was “inactive”.

On to YYCTM, for which the amyloid nucleation score entry is “inactive”.

Turning to PRGMPIAIFSDWCRLRWGVF, the amyloid nucleation score result is “inactive”.

Turning to ITSEIMAIWFDICKAWDLCV, the amyloid nucleation score entry was “inactive”.

In the case of RISKA, the amyloid nucleation score result was “inactive”.

Consider CTNKSSVYEFCYCVADMANV, for which the amyloid nucleation score entry was “inactive”.

In the case of SVLVIFVLLSIGSAVKLNYG, the amyloid nucleation score entry is “inactive”.

As to HEGCSMSGRIPLLSRYMGYG, the amyloid nucleation score result was “inactive”.

With PFCFELSWGYGKNKVATMRY, the amyloid nucleation score entry is “inactive”.

As to DKIGDFNLYWHVKALLAYFY, the amyloid nucleation score entry was “inactive”.

For the substance DMYPFPVCR, the amyloid nucleation score result is “inactive”.

Turning to CSPVTCEISDWIV, the amyloid nucleation score result was “inactive”.

PFGVKSMLAVYTHYVFGATV: the amyloid nucleation score entry is “inactive”.

On to LNQSDRCKVCWYWLGHT, for which the amyloid nucleation score result was “inactive”.

Consider LFMCMIFDCDIRIVNSVGCI, for which the amyloid nucleation score is 1.43 ± 0.14.

Turning to GCYEGMLVIFLVFWLVVVYP, the amyloid nucleation score entry is “inactive”.

Take VFSGGVRETLNSS: the amyloid nucleation score entry is “inactive”.

In the case of NSQGQNYILTFYR, the amyloid nucleation score worked out at 1.82 ± 0.088.

In turn, VDNIVVVCCFKDNCLSKG gave an amyloid nucleation score of 1.85 ± 0.09.

SCVAVSI: the amyloid nucleation score entry was “inactive”.

For KGLVLAYILSRSVFERFKGG, the amyloid nucleation score result was “inactive”.

The substance RCKIENVIYM showed an amyloid nucleation score of 2.44 ± 0.058.

As for TNEIDLSEFMLQITLMLIRG, the amyloid nucleation score entry was “inactive”.

SRVNFM: the amyloid nucleation score entry is “inactive”.

In the case of VRVILNAGLKNGRKVLNLGR, the amyloid nucleation score entry was “inactive”.

Regarding QPPAKSMWFSFDMLS, the amyloid nucleation score result was “inactive”.

As to KSMATMSQIVPDSFSEFDWY, the amyloid nucleation score result is “inactive”.

Turning to NYMYGLRGSRLQFGMFRFGG, the amyloid nucleation score entry is “inactive”.

In turn, DRNSYVMCYPWGVVWCNHKS had an amyloid nucleation score of 1.03 ± 0.14.

As to KQADVFIIMSRVIGNRGCLF, the amyloid nucleation score result was “inactive”.

Take VPTVLDRFDMMHVSEYRDGA: the amyloid nucleation score result is “inactive”.

Regarding MTCTTCACDDICSNKLVLFH, the amyloid nucleation score entry was “inactive”.

In the case of ESVGLISWFRVPIYSN, the amyloid nucleation score entry was “inactive”.

On to NECYYLGRNWPYYGKSDMLL, for which the amyloid nucleation score came out at 0.379 ± 0.27.

SNIVFVPRSLQRREDGRRMD: the amyloid nucleation score result was “inactive”.

With SALPVTSCFFTTMCGTVIID, the amyloid nucleation score result is “inactive”.

Substance CTVGIYLLNLC registered an amyloid nucleation score of 2.45 ± 0.084.

Turning to TLFWMSYWMRPSNIHCCVRM, the amyloid nucleation score result is “inactive”.

As for YYWRMYCS, the amyloid nucleation score entry was “inactive”.

DKWSWSVCNIRLSKSCNPVT: the amyloid nucleation score entry was “inactive”.

In the case of PSKPRTGQVGGVYHLCVVFW, the amyloid nucleation score entry was “inactive”.

In the case of TFCFPWL, the amyloid nucleation score entry is “inactive”.

For IFIAKLENTVSRLFTFCFIM, the amyloid nucleation score result is “inactive”.

Consider RLNVYTYAKFRRHRCKATSW, for which the amyloid nucleation score result is “inactive”.

In the case of VAAMYGILMMLMELVWSDAR, the amyloid nucleation score entry was “inactive”.

In the case of PSTEI, the amyloid nucleation score result is “inactive”.

Regarding LYSETWEY, the amyloid nucleation score result is “inactive”.

For LSSLYLCCYACPNMLLI, the amyloid nucleation score came out at 1.58 ± 0.11.

LETNG: the amyloid nucleation score entry was “inactive”.

In the case of GEDVGPCMTESCRYAYLRYT, the amyloid nucleation score entry was “inactive”.

As to VELSNVFWGERYIKGLLTDL, the amyloid nucleation score result was “inactive”.

As to SDDDSYLWSSLFQA, the amyloid nucleation score entry is “inactive”.

With AVLWIVSGGTYESVDLNYWC, the amyloid nucleation score is 0.837 ± 0.13.

As to SMDTE, the amyloid nucleation score was found to be 0.734 ± 0.17.

On to QSPSSKAK, for which the amyloid nucleation score entry was “inactive”.

The substance RAFHYNSCKSVSAVLDLNVL yielded an amyloid nucleation score of -0.094 ± 0.31.

ACIFNLGGVHRCICCVLFNI: the amyloid nucleation score entry is “inactive”.

KQCIFNISLCSS yielded an amyloid nucleation score of 0.008 ± 0.42.

In the case of ISDLTHFRYRDVPNLLVRTK, the amyloid nucleation score result was “inactive”.

Regarding ERFRSLSGTVEEG, the amyloid nucleation score entry was “inactive”.

Substance ADIDLVGVDCPWCGGLESFP yielded an amyloid nucleation score of -0.342 ± 1.2.

For WYERGG, the amyloid nucleation score result was “inactive”.

As for LYDLTGPVSNLTISLLNVEY, the amyloid nucleation score entry is “inactive”.

Turning to KYVVQPYGSCRWGLITVRAN, the amyloid nucleation score entry was “inactive”.

On to NIGNHYCRYNGWDMLNRGEL, for which the amyloid nucleation score entry was “inactive”.

Consider TVRASFGYNLRNWCSTVVVE, for which the amyloid nucleation score result was “inactive”.
